In paper PMC4562236:

Columns and labels:
[1] = tested on: T1, His-ArsR (Bacillus sp. CDB3), ORF:1234e343; experiment: EMSA; conditions: 10 mM Tris-HCl pH 7.6, 80 mM KCl, 0.2 mM EDTA, 0.2 mM DTT, 10% glycerol, 0.75 µM BSA, 30 µL, on ice 30 min; 6% native acrylamide gel in TBE pH 8.3
T1 sequence: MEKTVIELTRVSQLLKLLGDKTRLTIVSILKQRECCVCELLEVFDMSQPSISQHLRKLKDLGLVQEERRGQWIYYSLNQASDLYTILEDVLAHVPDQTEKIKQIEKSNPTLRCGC

[2] = tested on: T2, His-ArsD (Bacillus sp. CDB3), ORF:bd8c364d; experiment: EMSA; conditions: 10 mM Tris-HCl pH 7.6, 80 mM KCl, 0.2 mM EDTA, 0.2 mM DTT, 10% glycerol, 0.75 µM BSA, 30 µL, on ice 30 min; 6% native acrylamide gel in TBE pH 8.3
T2 sequence: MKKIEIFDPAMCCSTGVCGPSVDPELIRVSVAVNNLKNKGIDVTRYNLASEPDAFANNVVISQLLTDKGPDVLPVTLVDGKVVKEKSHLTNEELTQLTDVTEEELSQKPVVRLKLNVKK

Sequence | binding [1] | binding [2]
TGAGACTGCTATGAAAGAAAACGGTGTTTCAACATTACGTTTTACATTTGATGGTGCTGGATGCTGTGGCCCTAGTTACGGTATTAATTTAGGTGAAGCACAAGAAAATGATGTCACAGAAACAGTCTAGAC (double strand) [proN] | no binding | –
TTCAGTTGAATATATAAGCGGTTAATTATATACTTATTTCAAGAGGGAGAGAAAATTAAATATGAATCCATTTAATGAATATTACGTTTAATTTTTACTCAACATATAAGTATATGCTTATGCAATTATGAAAAGGAGGTATAGATATGGCTCTAGATA (double strand) [proR] | binds | no binding
